Reference: patent publication US20130123460A1 (SANWA KAGAKU KENKYUSHO, published 2013)
Where no end group is shown, it is not given here.

Molecular target: endogenous VIP receptor of SUP-T1 cells (human)
Assay: cell-based or functional assay

HSDAVFTDNYTRLRKQMAVKKYLNSILN-NH2 [VIP(1-28)-NH2]
cAMP Productivity in SUP-T1 Cells, Activity Intensity (%) relative to native VIP: 100%
